Data on eleven molecules can be found in publication PMC7110135, “Molecular flexibility of DNA as a key determinant of RAD51 recruitment”.

One series addresses F86E RAD51 (human) (UniProt Q06609). Description: SPR; Biotinylated ssDNA dT-50, dN-50, dA-50 and dsDNA dN-50p held on streptavidin-coated CM5 chips; F86E RAD51 injected at 30 uM; 37 C; same SPR running buffer with ATP and CaCl2. The protomer-protomer KD in solution is a single fit parameter of a simplified ODE polymerisation model, fitted to all four curves by ABC-SMC (n = 3).

Series [1] has as its target T1, RAD51 WT (Homo sapiens, UniProt Q06609 1-339). The series can be described thus: SPR; 150 nM RAD51, 2.5 mM ATP, 10 mM Ca2+; slower association than dN-50, similar lifetime; SPR (Biacore T200, streptavidin CM5): 150 mM KCl, 20 mM Hepes pH 7.5, 2 mM DTT, 5 mg/ml BSA, 2.5 mM ATP, 10 mM CaCl2, 10% glycerol, 37 C. To be noted: protein: recombinant; tags: untagged; chain copies: 16; label: 5' Biotin (C6) on strand 1; blunt.

Series [2] deals with T1, RAD51 WT. The series can be described thus: SPR; 150 nM RAD51, 2.5 mM ATP, 10 mM Ca2+; faster association than dN-50p; SPR (Biacore T200, streptavidin CM5): 150 mM KCl, 20 mM Hepes pH 7.5, 2 mM DTT, 5 mg/ml BSA, 2.5 mM ATP, 10 mM CaCl2, 10% glycerol, 37 C. To be noted: protein: recombinant; tags: untagged; chain copies: 10; label: 5' Biotin (C6).
Series [3] concerns the target T1, RAD51 WT. Description: SPR; ATP, Ca2+; SPR (Biacore T200, streptavidin CM5): 150 mM KCl, 20 mM Hepes pH 7.5, 2 mM DTT, 5 mg/ml BSA, 2.5 mM ATP, 10 mM CaCl2, 10% glycerol, 37 C. To be noted: protein: recombinant, tags: untagged.
For series [4], the target named is T1, RAD51 WT. The series can be described thus: SPR; ATP, Ca2+; faster association than dN-50; SPR (Biacore T200, streptavidin CM5): 150 mM KCl, 20 mM Hepes pH 7.5, 2 mM DTT, 5 mg/ml BSA, 2.5 mM ATP, 10 mM CaCl2, 10% glycerol, 37 C. To be noted: protein: recombinant; tags: untagged; chain copies: 10; label: 5' Biotin (C6).
Series [5] concerns the target T2, human wild-type (WT) RAD51 (human), Q06609.
T2 chain: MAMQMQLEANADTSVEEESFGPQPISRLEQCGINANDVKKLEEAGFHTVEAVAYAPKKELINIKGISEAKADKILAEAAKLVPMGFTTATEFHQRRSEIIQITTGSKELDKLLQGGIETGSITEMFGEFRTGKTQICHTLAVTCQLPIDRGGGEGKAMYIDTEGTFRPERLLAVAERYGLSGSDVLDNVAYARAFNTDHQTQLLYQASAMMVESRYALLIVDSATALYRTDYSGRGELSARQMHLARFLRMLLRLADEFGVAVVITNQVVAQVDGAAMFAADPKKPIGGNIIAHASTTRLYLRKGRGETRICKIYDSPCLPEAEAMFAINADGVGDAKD
Description: SPR; Biotinylated ssDNA (dN-X) and dsDNA (dN-Xp) held on streptavidin-coated CM5 chips; WT RAD51 injected at 150 nM or 3 uM; 37 C; 150 mM KCl, 20 mM Hepes pH 7.5, 2 mM DTT, 5 mg/ml BSA, 2.5 mM ATP, 10 mM CaCl2, 10% glycerol. The protomer-protomer KD in solution is a single fit parameter of an ODE polymerisation model, fitted to all curves by ABC-SMC (n = 3). Particulars: remark: other sources report otherwise.

Series [6] concerns the target T1, RAD51 WT. The series can be described thus: SPR; 3 uM RAD51, ATP, Ca2+; slightly faster association, slow dissociation; SPR (Biacore T200, streptavidin CM5): 150 mM KCl, 20 mM Hepes pH 7.5, 2 mM DTT, 5 mg/ml BSA, 2.5 mM ATP, 10 mM CaCl2, 10% glycerol, 37 C. Particulars: protein: recombinant; tags: untagged; chain copies: 10; label: 3' Biotin-TEG.
For series [7], the target named is T1, RAD51 WT. Description: SPR; 3 uM RAD51, ATP, Ca2+; faster association, slower dissociation than dN-8p; SPR (Biacore T200, streptavidin CM5): 150 mM KCl, 20 mM Hepes pH 7.5, 2 mM DTT, 5 mg/ml BSA, 2.5 mM ATP, 10 mM CaCl2, 10% glycerol, 37 C. Particulars: protein: recombinant; tags: untagged; chain copies: 16; label: 3' Biotin-TEG on strand 2; hairpin, two strands joined by (HEG)2, blunt.

Setting [8] is: chain copies: 10, label: 3' Biotin-TEG.

Turning to “F86E RAD51 (from UniProt Q06609 1-339) (natural protein)”, the Kd in the series with F86E RAD51 (human) amounted to 10.2 µM.

B1: dsDNA dN-50p (dsDNA)
DNA 1: TCGAGAGGGTAAACCACAATTATCGCCTACCCAAAACTATTTTATATCAA
DNA 2: TTGATATAAAATAGTTTTGGGTAGGCGATAATTGTGGTTTACCCTCTCGA
For the molecule B1, in the series with RAD51 WT [1], the binding result was “binds”.

B2: ssDNA dN-50 (ssDNA)
DNA: TTGAGAGAGCAGACCACAATTATCACCTACACGACATCATTTTATATCAA
Turning to B2, the binding result with RAD51 WT [2] is reported as “binds”.

B3: ssDNA dN-5 (ssDNA)
DNA: CGGAC
For B3, in the series with RAD51 WT [3] (setting [8]), the binding result is “no binding”.

B4: ssDNA dT-50 (ssDNA)
DNA: TTTTTTTTTTTTTTTTTTTTTTTTTTTTTTTTTTTTTTTTTTTTTTTTTT
As to B4, the binding result with RAD51 WT [4] is reported as “binds”.

B5: dsDNA dN-5p (dsDNA)
DNA 1: CGGAC
DNA 2: GTCCG
modifications: two hexaethylene glycol linkers join 3' end of strand 1 to 5' end of strand 2
As to B5, the binding result in the series with RAD51 WT [3] (chain copies: 16, label: 3' Biotin-TEG on strand 2, hairpin, two strands joined by (HEG)2, blunt) is reported as “no binding”.

B6: human wild-type (WT) RAD51, Q06609 1-339 (natural protein)
chain: MAMQMQLEANADTSVEEESFGPQPISRLEQCGINANDVKKLEEAGFHTVEAVAYAPKKELINIKGISEAKADKILAEAAKLVPMGFTTATEFHQRRSEIIQITTGSKELDKLLQGGIETGSITEMFGEFRTGKTQICHTLAVTCQLPIDRGGGEGKAMYIDTEGTFRPERLLAVAERYGLSGSDVLDNVAYARAFNTDHQTQLLYQASAMMVESRYALLIVDSATALYRTDYSGRGELSARQMHLARFLRMLLRLADEFGVAVVITNQVVAQVDGAAMFAADPKKPIGGNIIAHASTTRLYLRKGRGETRICKIYDSPCLPEAEAMFAINADGVGDAKD
B6 yielded a Kd in series [5] of 0.00114 µM.

B7: ssDNA dN-17 (ssDNA)
DNA: CGTCGATGAGCAGTGTC
Take B7: in the series with RAD51 WT [6], the binding result is “binds”.

B8: ssDNA dN-11 (ssDNA)
DNA: CGTCGATAGGC
On to B8, for which the binding result in the series with RAD51 WT [3] (setting [8]) was “no binding”.

B9: ssDNA dN-8 (ssDNA)
DNA: CTGACTGC
For the molecule B9, in the series with RAD51 WT [3] (setting [8]), the binding result is given as “no binding”.

B10: dsDNA dN-11p (dsDNA)
DNA 1: CGTCGATAGGC
DNA 2: GCCTATCGACG
modifications: two hexaethylene glycol linkers join 3' end of strand 1 to 5' end of strand 2
Consider B10, for which the binding result with RAD51 WT [7] was “binds”.
